# Experimental data taken from patent publication US20120301492A1.
# Target: mouse B6 class I antigens (Mouse MHC Class I; D^b or K^b molecules on the surface of RMA-S cells)
# Assay: RMA-S class I stabilisation, flow cytometry with FITC anti-D^b or anti-K^b; % increase of MFI over medium alone, peptide 25 ug/ml
row,Binder,Binding Affinity to Mouse MHC Class I
1,CMTWNQMNL [WT1 peptide p235-243 (…)],33.6%
2,SCLESQPAI [WT1 peptide human p136-144 (…)],52%
3,ALLPAVPSL [WT1 peptide human p10-18 (…)],2.2%
4,NLYQMTSQL [WT1 peptide p225-233 (…)],5.8%
5,GCNKRYFKL [WT1 peptide p329-337 (…)],1.2%
6,YSSDNLYQM [WT1 peptide p221-229 (…)],0.8%
7,QMTSQLECM [WT1 peptide p228-236 (…)],1.2%
8,NQMNLGATL [WT1 peptide p239-247 (…)],1%

# Target: mouse B6 class I antigens (Mouse MHC Class I; D^b or K^b molecules on the surface of RMA-S cells)
# Assay: binding of 9-mer peptides within p117-139 to mouse B6 (H-2^b) class I antigens; RMA-S assay as for Table XLVII
row,Binder,Binding Affinity to Mouse MHC Class I
1,PSQASSGQA [WT1 peptide P117-125 (…)],2%
2,SQASSGQAR [WT1 peptide P118-126 (…)],2%
3,QASSGQARM [WT1 peptide P119-127 (…)],2%
4,ASSGQARMF [WT1 peptide P120-128 (…)],1%
5,SSGQARMFP [WT1 peptide P121-129 (…)],1%
6,QARMFPNAP [WT1 peptide P124-132 (…)],1%
7,ARMFPNAPY [WT1 peptide P125-133 (…)],1%
8,MFPNAPYLP [WT1 peptide P127-135 (…)],2%
9,FPNAPYLPS [WT1 peptide P128-136 (…)],1%
10,PNAPYLPSC [WT1 peptide P129-137 (…)],1%
11,NAPYLPSCL [WT1 peptide P130-138 (…)],79%
12,APYLPSCLE [WT1 peptide P131-139 (…)],1%
